From patent US20060115839A1 come the findings set out here.

Some results are limits rather than exact numbers.

The term Kd denotes the equilibrium constant for the complex coming apart. The low end stands for a tighter complex, the high end for a looser complex.

The target of this test is T1, histone H3 peptide with dimethylated Lys79 (isothermal titration calorimetry).
T1 sequence (peptide, dimethylated Lys79): IAQDFKTDLR
Briefly: isothermal titration calorimetry (data not shown).

Chain of 53BP1 tandem tudor domain (isothermal titration calorimetry) (P70399 1480-1621 limits assumed): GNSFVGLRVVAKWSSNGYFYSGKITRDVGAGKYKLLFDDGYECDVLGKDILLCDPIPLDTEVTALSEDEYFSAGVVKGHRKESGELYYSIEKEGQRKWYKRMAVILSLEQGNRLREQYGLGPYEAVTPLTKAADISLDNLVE

Take “53BP1 tandem tudor domain (isothermal titration calorimetry) (from UniProt P70399 1480-1621)”: the equilibrium dissociation constant (Kd) was under 1000 nM.
